Reference: PMC10666025, “In pursuit of degenerative brain disease diagnosis: Dementia biomarkers detected by DNA aptamer-attached portable graphene biosensor”

How the values were obtained:
[1] = biological target: alpha-synuclein (synthetic/commercial) (UniProt P37840 1-140); assay: GFET Dirac shift; LoD 10-100 fM (not a Kd); GFET with immobilised aptamer; protein in 0.1x PBS (LoD series) or PBS; aptamer dissolved in 1x PBS + 0.5 mM MgCl2; pH and temperature of binding not given
[2] = biological target: alpha-synuclein, brain-derived (human (PD patient brain), UniProt P37840 1-140); assay: GFET Dirac shift; detected to 10-100 nM as printed; GFET with immobilised aptamer; protein in 0.1x PBS (LoD series) or PBS; aptamer dissolved in 1x PBS + 0.5 mM MgCl2; pH and temperature of binding not given
[3] = biological target: Tau, brain-derived (human (AD patient brain), UniProt P10636-8 1-441); assay: GFET Dirac shift; detected to 10-100 fM; GFET with immobilised aptamer; protein in 0.1x PBS (LoD series) or PBS; aptamer dissolved in 1x PBS + 0.5 mM MgCl2; pH and temperature of binding not given; settings: protein: native
Chain of Tau, brain-derived (P10636 other isoform, or with tags, fused parts or gaps): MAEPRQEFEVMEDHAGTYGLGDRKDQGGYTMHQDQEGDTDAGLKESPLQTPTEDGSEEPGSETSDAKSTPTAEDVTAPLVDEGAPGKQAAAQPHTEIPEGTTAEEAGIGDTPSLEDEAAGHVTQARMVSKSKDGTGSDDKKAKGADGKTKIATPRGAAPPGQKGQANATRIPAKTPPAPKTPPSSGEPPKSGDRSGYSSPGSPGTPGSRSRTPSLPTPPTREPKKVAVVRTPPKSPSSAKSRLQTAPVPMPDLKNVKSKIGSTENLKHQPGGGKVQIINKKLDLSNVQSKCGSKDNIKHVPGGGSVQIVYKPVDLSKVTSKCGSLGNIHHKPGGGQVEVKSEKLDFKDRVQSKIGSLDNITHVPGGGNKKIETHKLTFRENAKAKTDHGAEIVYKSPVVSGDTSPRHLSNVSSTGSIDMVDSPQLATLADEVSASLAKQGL

[4] = biological target: Tau441 (synthetic/commercial) (human, UniProt P10636-8 1-441); assay: GFET Dirac shift; LoD 1-10 pM in abstract, ~100 fM in Results (not a Kd); GFET with immobilised aptamer; protein in 0.1x PBS (LoD series) or PBS; aptamer dissolved in 1x PBS + 0.5 mM MgCl2; pH and temperature of binding not given
Chain of Tau441 (synthetic/commercial) (P10636 other isoform, or with tags, fused parts or gaps): as above

[5] = biological target: Amyloid-beta 1-42 (synthetic) (UniProt P05067 672-713); assay: GFET Dirac shift; LoD 10 fM (not a Kd); GFET with immobilised aptamer; protein in 0.1x PBS (LoD series) or PBS; aptamer dissolved in 1x PBS + 0.5 mM MgCl2; pH and temperature of binding not given
Chain of Amyloid-beta 1-42 (synthetic) (P05067 672-713): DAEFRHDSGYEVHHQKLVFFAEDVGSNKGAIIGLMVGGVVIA

[6] = biological target: Amyloid-beta 1-42, brain-derived (human (AD patient brain), UniProt P05067 672-713); assay: GFET Dirac shift; detected to ~10 fM, dose-dependent; GFET with immobilised aptamer; protein in 0.1x PBS (LoD series) or PBS; aptamer dissolved in 1x PBS + 0.5 mM MgCl2; pH and temperature of binding not given; settings: protein: native
Chain of Amyloid-beta 1-42, brain-derived (P05067 672-713): as above

B1: alpha-synuclein aptamer F5R1 (ssDNA)
DNA: ATCGAGTGTGTACGGGGTCCGGTAGGGTGGCGAGGTCTTCCTGTCGTAGCAGGATCCA
modifications: 3' amino
B1: binds [1]; binds [2].

B2: Tau aptamer IT2 (ssDNA)
DNA: CAGCACCGTCAACTGAATAAGGACTGCTTAGGATTGCGATGATTCAGGGTGATGCGATGGAGATGT
modifications: 3' amino
B2: binds [3]; binds [4].

CCGGTGGGGGACCAGTACAAAAGTGGGTAGGGCGGGTTGGAAAA (ssDNA, 3' amino) [Abeta aptamer Abeta7-92-1H1]: binds [5]; binds [6].
